Test results as given in US20100216659A1.

What was measured:
[1] = target: monomeric gp120 (HIV-1) (HIV-1); assay: yeast display flow cytometry, gp120 titrated in the absence of sCD4, MFI of antigen binding
[2] = target: gp120 pre-complexed with sCD4 (HIV-1); assay: yeast display flow cytometry, gp120 titrated in the presence of sCD4, MFI of antigen binding

Substance: scFv X5 displayed on yeast (X5-pPNLS in EBY100)
- Kd [1]: 14.5 nM
- Kd [2]: 1.1 nM
